Reference: US11008365B2 (NATIONAL INSTITUTE OF ADVANCED INDUSTRIAL SCIENCE AND …, priority 2016, dated 2021)
Entries after “also recorded” stand apart in the source; their conditions may differ.

How the values were obtained:
[1] = target: T1, CH1-CL domain forming a non-native three-dimensional structure (Homo sapiens, UniProt P01834+P01857); test: SPR of synthetic peptides on immobilized acid-treated CH1-CL domain; format: binding; conditions: for Non-native CH1-CL domain (whether affinity was present or not): SPR Biacore T100, peptides 4-1 μM (FIG. 5), 50-1.6 μM (FIG. 6), 64-2 μM (FIG. 7); for affinity / binding response compared to AF.ab9: SPR, non-native CH1-CL domain immobilized, FIGS. 6 and 7
T1 construct: made in house; host or cells: Escherichia coli BL21(DE3)
From the text: Here, the AF.ab9 body is a 16-residue polypeptide consisting of the 8-residue linker region and the 8-residue microprotein chignolin, and the AF.ab9 arm is a 10-residue polypeptide consisting of a region selected from the random amino acid sequences. The preparation of the polypeptides was entrusted to GL Biochem (Shanghai). […] The measurement conditions were in accordance with those in the paragraph 3).
The CH1-CL domain forming a non-native three-dimensional structure prepared by the same method as in the paragraph 3) was immobilized on a sensor chip CM5 (GE Healthcare) by amine coupling, and the binding thereof to AF.ab31, AF.ab9, and alanine substitution products was measured with Biacore T100 (FIGS. 6 and 7, Table 3).

Fc region = test: SPR of Fc region (native or acid-treated) on immobilized AF.ab9; format: binding, human
Method: (§1) Preparation of the synthesized polypeptide was entrusted to GL Biochem (Shanghai). AF.ab9 was dissolved in a boric acid buffer solution (10 mM Borate-Na, 1 M NaCl, pH 8.5) and was immobilized on a sensor chip CM5 (GE Healthcare) by amine coupling.
(§2) Subsequently, human monoclonal IgG, Fab region, and Fc region having a native three-dimensional structure and a non-native three-dimensional structure were prepared. The Fab region and Fc region were prepared by subjecting human monoclonal IgG to papain digestion with Pierce (registered trademark) Fab Preparation Kit (Thermo Fisher Scientific Inc.) and then to purification by affinity chromatography using MabSelect SuRe (GE Healthcare), anion exchange chromatography using HiTrap DEAE (GE Healthcare), and gel filtration chromatography using Superdex 200 (GE Healthcare). The IgG, Fab region, and Fc region were each diluted to 5 μM and dialyzed against an acid buffer solution (50 mM NaH2PO4, 100 mM NaCl, pH 2.0) for 12 hours for accelerating acid denaturation and dialyzed against an HBS-T buffer solution for neutralization.

Fab region = test: SPR of Fab region (native or acid-treated) on immobilized AF.ab9; format: binding, human
Method: as §1, §2

human monoclonal IgG = test: SPR of IgG (native or acid-treated) on immobilized AF.ab9; format: binding
Method: as §1, §2
Subsequently, an example of evaluating the affinity of AF.ab9 for IgG treated with buffer solutions having different degrees of acidity will be described. IgG was dissolved in an HBS buffer solution (10 mM HEPES, 150 mM NaCl, pH 7.4) at a concentration of 5 μM. The acidity of a sodium phosphate buffer solution (50 mM NaH2PO4, 100 mM NaCl) as an acid buffer solution was adjusted to three degrees of pH 2.0, pH 3.0, and pH 4.0. An antibody was dialyzed against each of the buffer solutions for 12 hours and was then dialyzed against an HBS-T buffer solution for neutralization. The affinity of each of the resulting acid-treated IgG for AF.ab9 was measured by SPR (FIG. 4, Table 2). The SPR test was conducted in accordance with the conditions described above in this paragraph. […] Regarding the acid denaturation of the CH1-CL domain, it has been reported as the results of analysis by spectroscopic methods such as CD spectrum and fluorescence spectrum that a clear change in the three-dimensional structure of the CH1-CL domain occurs between pH 4.0 and pH 3.0 (Non Patent Literature 32).

Sequence	Non-native CH1-CL domain (whether affinity was present or not) [1]	affinity / binding response compared to AF.ab9 [1]	also measured
PNSGGGGSYDPETGTWPQEIRLIANW [AF.ab9 L24A]	Binding	the binding response decreased	–
PNSGGGGSYDPETGTWPQWITLTITY (Synthetic IgG binding peptide) [AF.ab31]	Binding	substantially equivalent	–
PNSGGGGSYDPETGTWPQEIRLILNW (Synthetic IgG binding peptide) [AF.ab9]	showed affinity; also recorded: Binding	–	affinity for AF.ab9: pH 2.0-treated Fc (Fc region; Fc region treated with acid buffer pH 2.0, neutralized, 2-0.125 μM): No-binding; affinity for AF.ab9: Native Fc (Fc region; acid-untreated Fc region 2-0.125 μM): did not show a binding response; also recorded: No-binding; binding response to the acid-treated Fc region compared with that on the non-native structure of the Fab region (Fc region; pH 2.0-treated Fc versus pH 2.0-treated Fab, SPR): 1/100; affinity for AF.ab9: pH 2.0-treated Fab (Fab region; Fab region treated with acid buffer pH 2.0, neutralized, 2-0.125 μM): strong binding response; affinity for AF.ab9: Native Fab (Fab region; acid-untreated Fab region 2-0.125 μM): did not show a significant binding response; also recorded: No-binding; affinity for AF.ab9: pH 2.0-treated IgG (human monoclonal IgG; IgG treated with acid buffer pH 2.0 for 12 hours, neutralized, 2-0.125 μM): strong binding response; also recorded: clear binding responses; affinity for AF.ab9: pH 3.0-treated IgG (human monoclonal IgG; IgG treated with acid buffer pH 3.0, neutralized, 2-0.125 μM): clear binding responses; affinity for AF.ab9: pH 4.0-treated IgG (human monoclonal IgG; IgG treated with acid buffer pH 4.0, neutralized, 2-0.125 μM): did not show a significant binding response; also recorded: No-binding; affinity for AF.ab9: Native IgG (human monoclonal IgG; acid-untreated IgG 2-0.125 μM, AF.ab9 immobilized on CM5): did not show a significant binding response; also recorded: No-binding
PNSGGGGSYDPETGTWPAEIRLILNW [AF.ab9 Q18A]	Binding	–	–
PQEIRLILNW (Synthetic IgG binding peptide) [AF.ab9 arm]	showed affinity; also recorded: Binding	–	–
PNSGGGGSYDPETGTWAQEIRLILNW [AF.ab9 P17A]	Binding	the binding response decreased	–
